The supplement of paper PMC9112550, “Optimization of the antimicrobial peptide Bac7 by deep mutational scanning” (BMC Biology, 2022)

system: Escherichia coli TOP10; experiment: shrunken log2 fold change of peptide-encoding DNA abundance (4.5 h post-induction vs induction); higher = less antimicrobial activity (less host growth inhibition); details: time post-induction: 4.5 h; library: site-saturation at positions 5, 18, 19, 20
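Also: peptides expressed intracellularly from a pBAD plasmid library in pooled LB shake-flask culture, induced with 0.3% L-arabinose, DNA abundance read by NGS, three biological replicates, DESeq2 with apeglm shrinkage.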

Sequence | shrunken log2 fold change
RRIRKRPPRLPRPRPRPGAEPRP | 1.26
RRIRQRPPRLPRPRPRPAQIPRP | 0.028
RRIRLRPPRLPRPRPRPAHTPRP | 0.0258
RRIRWRPPRLPRPRPRPNWHPRP | -0.00322
RRIRDRPPRLPRPRPRPWLPPRP | 0.0708
RRIRQRPPRLPRPRPRPICIPRP | -0.0334
RRIRSRPPRLPRPRPRPTSNPRP | 0.133
RRIRVRPPRLPRPRPRPHSMPRP | -0.333
RRIRSRPPRLPRPRPRPQLCPRP | 0.0696
RRIRGRPPRLPRPRPRPVDQPRP | 0.126
RRIRSRPPRLPRPRPRPSLDPRP | -0.0696
RRIRNRPPRLPRPRPRPLFVPRP | -0.495
RRIRVRPPRLPRPRPRPSAAPRP | 0.298
RRIRYRPPRLPRPRPRPVSCPRP | -0.0731
RRIRERPPRLPRPRPRPLWLPRP | -0.203
RRIRPRPPRLPRPRPRPAQLPRP | 0.237
RRIRTRPPRLPRPRPRPFQAPRP | -0.0372
RRIRRRPPRLPRPRPRPGWDPRP | 0.0298
RRIRERPPRLPRPRPRPCTAPRP | -0.337
RRIRWRPPRLPRPRPRPNEIPRP | 0.0563
RRIRKRPPRLPRPRPRPDMKPRP | -0.0241
RRIRLRPPRLPRPRPRPRQIPRP | 0.211

Sequence | shrunken log2 fold change
RRIRPRPPRLPRPRPRPMVNPRP | -0.0636
RRIRYRPPRLPRPRPRPFEAPRP | -0.886
RRIRVRPPRLPRPRPRPGWLPRP | 0.543
RRIRTRPPRLPRPRPRPYEAPRP | -0.966
RRIRMRPPRLPRPRPRPMPSPRP | 0.262
RRIRNRPPRLPRPRPRPPHLPRP | 0.155
RRIRHRPPRLPRPRPRPWLNPRP | -0.0017
RRIRMRPPRLPRPRPRPLHPPRP | 0.439
RRIRNRPPRLPRPRPRPFNRPRP | -0.111
RRIRARPPRLPRPRPRPCGMPRP | 0.0551
RRIRIRPPRLPRPRPRPLATPRP | -0.0671
RRIRERPPRLPRPRPRPSPWPRP | -0.445
RRIRFRPPRLPRPRPRPLGKPRP | -0.17
RRIRPRPPRLPRPRPRPWWGPRP | -0.0751
RRIRGRPPRLPRPRPRPRQMPRP | -0.0496
RRIRYRPPRLPRPRPRPQPTPRP | 0.0156
RRIRCRPPRLPRPRPRPQYNPRP | -1.36
RRIRSRPPRLPRPRPRPIAYPRP | -0.0673
RRIRCRPPRLPRPRPRPFATPRP | 0.287
RRIRNRPPRLPRPRPRPFMAPRP | -0.513
RRIRFRPPRLPRPRPRPTDGPRP | 0.0745
RRIRYRPPRLPRPRPRPAQGPRP | -0.0469

Sequence | shrunken log2 fold change
RRIRQRPPRLPRPRPRPMILPRP | -0.109
RRIRHRPPRLPRPRPRPHHNPRP | -0.672
RRIRTRPPRLPRPRPRPCVIPRP | -0.029
RRIRMRPPRLPRPRPRPRCSPRP | 0.393
RRIRMRPPRLPRPRPRPTQWPRP | 0.479
RRIRERPPRLPRPRPRPLNYPRP | -0.176
RRIRERPPRLPRPRPRPVKSPRP | -0.155
RRIRARPPRLPRPRPRPSQYPRP | -0.00629
RRIRERPPRLPRPRPRPSNTPRP | -0.942
RRIRERPPRLPRPRPRPHYKPRP | -0.901
RRIRHRPPRLPRPRPRPPKMPRP | -0.0472
RRIRNRPPRLPRPRPRPSGIPRP | -0.983
RRIRSRPPRLPRPRPRPKIIPRP | -0.0525
RRIRERPPRLPRPRPRPSFAPRP | -0.192
RRIRKRPPRLPRPRPRPSGSPRP | -0.0809
RRIRHRPPRLPRPRPRPVWVPRP | -0.0634
RRIRGRPPRLPRPRPRPHGRPRP | 0.182
RRIRWRPPRLPRPRPRPKCKPRP | 0.0552
RRIRTRPPRLPRPRPRPDTFPRP | 0.0276
RRIRRRPPRLPRPRPRPKPMPRP | 0.687
RRIRGRPPRLPRPRPRPNKSPRP | 0.96
RRIRWRPPRLPRPRPRPIMVPRP | -0.0215

Sequence | shrunken log2 fold change
RRIRERPPRLPRPRPRPGCNPRP | -0.0442
RRIRDRPPRLPRPRPRPAMFPRP | -0.228
RRIRTRPPRLPRPRPRPQGSPRP | -0.0161
RRIRKRPPRLPRPRPRPSRLPRP | 0.111
RRIRSRPPRLPRPRPRPPFMPRP | -0.0803
RRIRTRPPRLPRPRPRPRYSPRP | 0.0915
RRIRNRPPRLPRPRPRPMVWPRP | -0.03
RRIRCRPPRLPRPRPRPMGYPRP | -0.0984
RRIRIRPPRLPRPRPRPMWWPRP | 0.141
RRIRMRPPRLPRPRPRPCQDPRP | 0.227
RRIRVRPPRLPRPRPRPVCPPRP | 0.0825
RRIRGRPPRLPRPRPRPWLYPRP | 0.285
RRIRDRPPRLPRPRPRPVITPRP | 0.0916
RRIRMRPPRLPRPRPRPISMPRP | 0.0246
RRIRQRPPRLPRPRPRPCHEPRP | -0.0663
RRIRPRPPRLPRPRPRPSQCPRP | -0.985
RRIRSRPPRLPRPRPRPFCKPRP | -0.449
RRIRMRPPRLPRPRPRPSLMPRP | 0.428
RRIRRRPPRLPRPRPRPPEFPRP | 0.614
RRIRGRPPRLPRPRPRPPAAPRP | 1.63
RRIRARPPRLPRPRPRPWGWPRP | 0.649
RRIRYRPPRLPRPRPRPFSFPRP | -0.35

Sequence | shrunken log2 fold change
RRIRMRPPRLPRPRPRPNQRPRP | 0.332
RRIRYRPPRLPRPRPRPFFIPRP | -1.11
RRIRARPPRLPRPRPRPIIHPRP | -0.216
RRIRWRPPRLPRPRPRPENFPRP | 0.00343
RRIRARPPRLPRPRPRPCFSPRP | -0.137
RRIRARPPRLPRPRPRPDSAPRP | 0.608
RRIRRRPPRLPRPRPRPTCSPRP | 0.0172
RRIRMRPPRLPRPRPRPYGQPRP | 0.0303
RRIRSRPPRLPRPRPRPWFDPRP | -0.271
RRIRMRPPRLPRPRPRPIDAPRP | 0.616
RRIRDRPPRLPRPRPRPQYTPRP | -0.31
RRIRYRPPRLPRPRPRPFQEPRP | -0.152
RRIRVRPPRLPRPRPRPWPMPRP | 0.0297
RRIRVRPPRLPRPRPRPLEGPRP | 0.138
RRIRIRPPRLPRPRPRPRMYPRP | -0.33
RRIRCRPPRLPRPRPRPKGDPRP | -0.0659
RRIRHRPPRLPRPRPRPNEPPRP | -0.00438
RRIRERPPRLPRPRPRPTIPPRP | -0.475
RRIRYRPPRLPRPRPRPGSPPRP | -0.0883
RRIRIRPPRLPRPRPRPSCAPRP | -0.249
RRIRWRPPRLPRPRPRPSNNPRP | -0.446
